Experimental data reported in US8088892B2, “Inhibitors of proteins from the Rho-GEF family” (Centre National de la Recherche Scientifique (C.N.R.S.), priority 2002, dated 2012).

Assays:
TrioGEFD2 = TrioGEFD2 (Homo sapiens, UniProt O75962); test: Co-immunoprecipitation of HA-TrioGEFD2 with GFP-TRIPα in COS cells; format: binding; design: using recombinant GST-TrioGEFD2 (a.a. 1848-2298), TrioDH2 (a.a. 1848-2096); made in house; details: anti-GFP IP, anti-HA western blot
Source text: HA-TrioGEFD2 was co-expressed with either GFP-TRIPα (right column) or GFP alone (left column). The upper panel represents the immunoprecipitation (IP) with the anti-GFP antibody (α-GEP), followed by a western-blot (WB) using the anti-HA antibody (α-HA) and the two lower panels represent the expression of the proteins in the cell lysates.
The Inventors next wanted to determine the effect of TRIPα on GEFD2-mediated RhoA activation in intact cells. First, it was checked whether TRIPα could bind to TrioGEFD2 in mammalian cells. For that purpose, vectors expressing the variable region of TRIAPα (TRIPα) fused to GFP in the pEGFP-C3 plasmid (Clontech) were designed. GFP or GFP-TRIPα were co-expressed with pMTHA-TroGEFD2 by transfection of COS cells using Lipofectamine Plus (Life Technologies) according to the manufacturer's protocol. Immunoprecipitation of GFP-tagged constructs from COS cell lysates were done with the polyclonal rabbit anti-GFP antibody (Torrey Pines Biolabs, Inc.).

TrioDH2 = target: T1, TrioDH2 (Homo sapiens, UniProt O75962); test: In vitro GEF assay on RhoA; format: biochemical; details: 20-fold molar excess (8 μM) aptamer, 0.4 μM GST-DH2
T1 construct: TrioDH2 (a.a. 1848-2096); made in house
Method: A 20-fold molar excess (8 μM) of GST-aptamers TRIAPα, TRIAPβ (another TrioGEFD2 binding aptamer), TRIAPγ (another TrioGEFD2 binding aptamer) or the empty thioredoxine (Trx) were pre-incubated with 0.4 μM GST-GEFD2 (left side of FIG. 2A) or 0.4 μM GST-DH2 (right side of FIG. 2A), as indicated, before adding 0.3 μM of [^3H]GDP loaded GST-RhoA. The exchange activity was monitored by the decrease of [^3H]GDP bound-RhoA after 15 min (see Materials and Methods). The amount of [^3H]GDP bound-RhoA incubated without GEF (first bar on the left) was defined as 100% The values and errors bars were calculated from at least three independent experiments.
An in vitro guanine nucleotide exchange (GEF) assay was used to test whether the TrioGEFD2-binding aptamers could inhibit the catalytic activity of TrioGEFD2 towards RhoA. For this purpose, the aptamers TRIAPα, TRIAPβ and TRIAPγ (including the Trx gene) were excised from pEG202 as EcoRI/NotI fragments and cloned into pGEX4T1 EcoRI/NotI. The aptamers were then expressed and purified from bacteria as GST fusion proteins, using standard procedures (Smith and Johnson, 1988). […] The catalytic activity of TrioGEFD2 was thus measured by the decrease of the GTPase-associated radioactivity. The results are expressed as the ratio “exchange after 15 min over exchange after 0 min” (% bound [^3H]GDP-RhoA). […]

Lbc = test: In vitro GEF assay on RhoA; format: biochemical; design: key to in vitro GEF assay (inhibition): +++^2 and +^2 represent respectively a full and a partial (see FIG. 3) inhibitory effect; +++^2 and +^2 represent respectively a full and a partial (see FIG. 3) inhibitory effect; −−^2 represents a lack of inhibitory effect; details: for Effect on Lbc exchange activity on RhoA: 20-fold molar excess, Lbc 0.4 μM
Sequence of Lbc (Q12802 1994-2333 limits assumed): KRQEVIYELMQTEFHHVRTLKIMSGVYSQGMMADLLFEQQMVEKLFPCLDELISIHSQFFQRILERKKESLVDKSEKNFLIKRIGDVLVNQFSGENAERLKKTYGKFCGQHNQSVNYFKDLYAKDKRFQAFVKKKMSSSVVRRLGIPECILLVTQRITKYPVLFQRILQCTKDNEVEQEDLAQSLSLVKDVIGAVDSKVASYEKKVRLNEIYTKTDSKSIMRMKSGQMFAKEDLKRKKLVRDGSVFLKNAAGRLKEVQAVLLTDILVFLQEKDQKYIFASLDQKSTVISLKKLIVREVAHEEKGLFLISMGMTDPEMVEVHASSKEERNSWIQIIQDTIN
Method: (§1) To test the specificity of TRIAPα inhibition in vitro, exchange experiments were performed either on RhoA with different RhoA-specific GEFs: Trio GEFD2 (0.4 μM), Kalirin GEFD2 (KalGEFD2, 1.7 μM), p63RhoGEF (Souchet et al., 2002) (0.4 μM) and Lbc (amino acids 172-598; Zheng et al., 1995) (0.4 μM), or on RhoG, with the RhoG-specific GEF domain of Trio (TrioGEFD1, 0.1 μM). Exchange assays were performed with the recombinant GEFs as described in FIG. 2A. Different concentrations of RhoGEFs were used to yield a similar nucleotide exchange efficiency. For each exchange factor, three independent experiments were done in absence (black bar) or in the presence (grey bar) of a 20-fold molar excess of TRIAPα.
(§2) An in vitro guanine nucleotide exchange (GEF) assay was used to test whether the TrioGEFD2-binding aptamers could inhibit the catalytic activity of TrioGEFD2 towards RhoA. For this purpose, the aptamers TRIAPα, TRIAPβ and TRIAPγ (including the Trx gene) were excised from pEG202 as EcoRI/NotI fragments and cloned into pGEX4T1 EcoRI/NotI. The aptamers were then expressed and purified from bacteria as GST fusion proteins, using standard procedures (Smith and Johnson, 1988). GTPase-GST fusion proteins were prepared, loaded with [^3H]GDP and the guanine nucleotide release assays were performed as described (Debant et al., 1996), using recombinant GST-TrioGEFD2 (a.a. 1848-2298), TrioDH2 (a.a. 1848-2096). For each point, 0.3 μM GTPase was mixed with or without 0.4 μM GEF in presence of non-labeled GTP, and the reaction mix was filtered after 0 min and 15 mm reaction at 25° C. The catalytic activity of TrioGEFD2 was thus measured by the decrease of the GTPase-associated radioactivity. The results are expressed as the ratio “exchange after 15 min over exchange after 0 min” (% bound [^3H]GDP-RhoA). To measure the effect of the aptamers on the exchange activity, a 20-fold molar excess of GST-TRIAPs was pre-incubated with GEFD2 (or GEFD1) for 30 min on ice before the exchange assay was carried out. For each experiment, data were obtained in triplicate.
(§3) The effect of GST-TRIAPα on other Rho-GEFs that display in vitro exchange activity on RhoA was next tested to investigate whether TRIAPα inhibition was specific of TrioGEFD2. The exchange activities of the RhoGEF Lbc (a.a. 1-424, FIG. 3)(Zheng et al., 1995) and Dbl (a.a. 495-826, data not shown) were not affected by GST-TRIAPα. The effect of GST-TRIAPα on the catalytic activity of RhoGEFs that display a high sequence similarity with TrioGEFD2 was then tested: the recently identified RhoA-specific p63RhoGEF (Souchet et al., 2002) (a.a. 149-374, 71.5% identity with TrioGEFD2, 0.4 μM) and the second Rho-GEF domain of the Trio family member Kalirin (KalGEFD2, a.a. 1850-2190, 65% identity with TrioGEFD2, 1.7 μM). Different concentrations of RhoGEFs were used to yield similar nucleotide exchange […]. For each exchange factor, three independent experiments were done in absence or in the presence of a 20-fold molar excess of GST-TRIAPα. […] Thus, the in vitro inhibitory activity of TRIAPα was selective for TrioGEFD2 (see table I for summary of the tested RhoGEFs).

p63RhoGEF = target: T2, p63RhoGEF (Homo sapiens, UniProt Q86VW2); test: In vitro GEF assay on RhoA; format: biochemical; design: key to in vitro GEF assay (inhibition): +++^2 and +^2 represent respectively a full and a partial (see FIG. 3) inhibitory effect; +++^2 and +^2 represent respectively a full and a partial (see FIG. 3) inhibitory effect; −−^2 represents a lack of inhibitory effect; details: for Effect on p63RhoGEF exchange activity on RhoA: 20-fold molar excess, p63RhoGEF 0.4 μM
T2 construct: (a.a. 149-374, 71.5% identity with TrioGEFD2, 0.4 μM); made in house
T2 sequence (Q86VW2 149-374): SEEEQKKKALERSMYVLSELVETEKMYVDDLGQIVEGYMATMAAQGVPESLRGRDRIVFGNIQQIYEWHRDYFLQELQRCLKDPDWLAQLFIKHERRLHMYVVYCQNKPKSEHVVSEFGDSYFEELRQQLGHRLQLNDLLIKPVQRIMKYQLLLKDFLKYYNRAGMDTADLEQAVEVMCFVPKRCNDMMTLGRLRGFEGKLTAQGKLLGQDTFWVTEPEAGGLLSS
Method: as §1, §2, §3

Molecule | Interaction with TrioGEFD2 in mammalian cells (TrioGEFD2) | Inhibition of TrioDH2 exchange activity on RhoA in vitro (TrioDH2) | Inhibition of TrioDH2 exchange activity on RhoA in vitro (TrioDH2; listed as GST-TRIAPα) | Effect on Lbc exchange activity on RhoA (Lbc) | Effect on Lbc exchange activity on RhoA (Lbc; listed as GST-TRIAPα) | in vitro GEF assay (inhibition) (Lbc; RhoGEF Lbc) | Effect on p63RhoGEF exchange activity on RhoA (p63RhoGEF) | Effect on p63RhoGEF exchange activity on RhoA (p63RhoGEF; listed as GST-TRIAPα) | in vitro GEF assay (inhibition) (p63RhoGEF; RhoGEF p63RhoGEF)
AREGADGAICGYNLATLVMLGPSERVFCPLCEPCSSDIYELM [TRIPα, 42-amino acid peptide corresponding to the variable region of TRIAPα] | interacts with TrioGEFD2 in mammalian cells |  |  |  |  |  |  |  | 
TRIAPα: aptamer of 154 amino acids: variable region of 42 amino acids inserted into the thioredoxin protein; tested as GST fusion (protein) MSDKIIHLTDDSFDTDVLKADGAILVDFWAEWCGPAREGADGAICGYNLATLVMLGPSERVFCPLCEPCSSDIYELMGPCKMIAPILDEIADEYQGKLTVAKLNIDQNPGTAPKYGIRGIPTLLLFKNGEVASATKVGALSKGQLKEFLDANLA |  | inhibits | inhibited both TrioGEFD2 and TrioDH2 exchange activities | has no effect | not affected | −−^2 | has no effect | had no effect | −−^2
